Data as given in article PMC7416497.

Target: T1, ETS1 ΔN279 (UniProt P14921 279-441)
T1 sequence: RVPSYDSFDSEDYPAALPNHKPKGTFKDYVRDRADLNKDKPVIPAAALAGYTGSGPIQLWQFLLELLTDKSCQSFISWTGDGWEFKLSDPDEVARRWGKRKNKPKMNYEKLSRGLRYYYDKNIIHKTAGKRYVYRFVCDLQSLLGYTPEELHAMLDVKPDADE
Assay: EMSA

B1: SC1 (dsDNA)
DNA 1: TCGACGGCCAAGCCGGAAGTGAGTGCC
DNA 2: TCGAGGCACTCACTTCCGGCTTGGCCG
Kd: 0.4 nM
